# Laboratory results from the Human Domainome abundance scans (Beltran et al. 2025).
# ± gives the uncertainty stated by the source.
# B1: Far upstream element-binding protein 1, residues 98 to 169; numbered along this chain, Q96AE4 (parent)
# chain: RSVMTEEYKVPDGMVGFIIGRGGEQISRIQQESGCKIQIAPDSGGLPERSCMLTGTPESVQSAKRLLDQIVE
# Variants of: B1
# Assay: abundance fitness (aPCA) (normalised: wild type 0, dead -1); higher = more abundant; growth selection in yeast, the domain comes from the species named
# Conditions: Homo sapiens
row,Variant,abundance fitness
1,L46H,-0.011 ± 0.058
2,L46M,-0.031 ± 0.036
3,D12Y,-0.045 ± 0.045
4,D12K,-0.068 ± 0.036
5,D12N,0.032 ± 0.041
6,D12M,-0.067 ± 0.037
7,D12R,-0.028 ± 0.023
8,D12S,-0.045 ± 0.026
9,D12Q,-0.027 ± 0.031
10,G20T,-0.182 ± 0.032
11,G20E,0.002 ± 0.033
12,G20W,-0.321 ± 0.033
13,G23C,-0.101 ± 0.035
14,G23T,-0.127 ± 0.038
15,G23E,-0.011 ± 0.033
16,G23Y,-0.072 ± 0.052
17,G23P,-0.181 ± 0.033
18,G13W,-0.038 ± 0.029
19,G13T,0.031 ± 0.031
20,G13F,-0.123 ± 0.045
21,G13D,0 ± 0.034
22,Q31H,-0.06 ± 0.047
23,Q31E,0.028 ± 0.035
24,A40M,-0.032 ± 0.041

row,Variant,abundance fitness
1,A40V,-0.089 ± 0.029
2,A40R,-0.064 ± 0.026
3,A40L,-0.05 ± 0.029
4,G34P,-0.837 ± 0.062
5,G34D,-0.094 ± 0.042
6,G34E,-0.06 ± 0.029
7,S43K,-0.091 ± 0.037
8,Y8A,-0.221 ± 0.03
9,Y8Q,-0.2 ± 0.036
10,Y8F,-0.013 ± 0.047
11,Y8T,-0.147 ± 0.037
12,Y8R,-0.216 ± 0.026
13,E32F,-0.208 ± 0.051
14,E32G,-0.166 ± 0.026
15,E32A,-0.071 ± 0.033
16,M4Q,-0.085 ± 0.03
17,M4A,-0.07 ± 0.027
18,M4W,-0.165 ± 0.03
19,M4R,-0.165 ± 0.023
20,E48F,-0.015 ± 0.036
21,E48V,-0.035 ± 0.028
22,R49G,-0.088 ± 0.026
23,R49T,-0.068 ± 0.034
24,R49W,-0.318 ± 0.032

row,Variant,abundance fitness
1,R49Y,-0.072 ± 0.046
2,R49N,-0.085 ± 0.045
3,R49C,-0.183 ± 0.041
4,R49S,-0.086 ± 0.029
5,R49L,-0.18 ± 0.03
6,P47V,-0.038 ± 0.029
7,P47N,-0.012 ± 0.052
8,E6F,-0.081 ± 0.039
9,E6G,-0.092 ± 0.023
10,E6C,-0.085 ± 0.037
11,E6L,-0.033 ± 0.026
12,E6Q,0.054 ± 0.032
13,E58S,-0.041 ± 0.029
14,E58L,-0.072 ± 0.027
15,M52W,-0.011 ± 0.029
16,M52N,-0.072 ± 0.052
17,M52A,-0.056 ± 0.03
18,M52I,-0.018 ± 0.05
19,M52L,0 ± 0.028
20,I39T,-0.227 ± 0.035
21,I39R,-0.369 ± 0.026
22,E24L,-0.108 ± 0.03
23,E24H,0.026 ± 0.058
24,E24N,-0.163 ± 0.074

row,Variant,abundance fitness
1,E24V,-0.072 ± 0.028
2,E24T,-0.035 ± 0.037
3,L66A,-0.076 ± 0.029
4,L66N,-0.108 ± 0.039
5,L66P,-0.684 ± 0.04
6,I26P,-0.515 ± 0.044
7,I26H,-0.139 ± 0.054
8,I18E,-0.147 ± 0.029
9,T56V,-0.04 ± 0.026
10,T56E,-0.036 ± 0.032
11,T56R,-0.058 ± 0.025
12,T56I,-0.079 ± 0.042
13,T56C,-0.026 ± 0.037
14,T56A,-0.046 ± 0.029
15,T56L,-0.062 ± 0.028
16,E72T,0.05 ± 0.036
17,E72P,-0.065 ± 0.042
18,D42Y,-0.113 ± 0.045
19,D42M,-0.08 ± 0.035
20,D42L,-0.095 ± 0.029
21,D42P,0.004 ± 0.038
22,D42K,-0.026 ± 0.036
23,R21H,-0.118 ± 0.12
24,R21C,-0.119 ± 0.21

row,Variant,abundance fitness
1,K9R,-0.053 ± 0.022
2,K9I,-0.079 ± 0.035
3,Q38M,-0.038 ± 0.037
4,Q38L,-0.036 ± 0.031
5,V60E,-0.855 ± 0.044
6,V60Y,-0.781 ± 0.07
7,V3D,-0.042 ± 0.036
8,V3L,-0.047 ± 0.029
9,V3K,0.03 ± 0.035
10,F17D,0.015 ± 0.033
11,F17T,0 ± 0.027
12,F17R,0.047 ± 0.021
13,F17K,0.072 ± 0.03
14,F17E,0.084 ± 0.027
15,F17Q,0.044 ± 0.029
16,V10D,-0.389 ± 0.038
17,V10K,-0.584 ± 0.05
18,G44D,-0.017 ± 0.032
19,G44I,-0.064 ± 0.033
20,G44P,-0.061 ± 0.03
21,G44C,-0.019 ± 0.036
22,G44Q,-0.023 ± 0.034
23,G44E,-0.004 ± 0.031
24,G44S,-0.003 ± 0.025

row,Variant,abundance fitness
1,S2Q,0.015 ± 0.035
2,S2M,0.038 ± 0.037
3,S2T,0.012 ± 0.03
4,Q25K,-0.013 ± 0.038
5,Q25S,-0.023 ± 0.028
6,V15L,-0.046 ± 0.026
7,V15T,-0.126 ± 0.032
8,V15M,-0.027 ± 0.036
9,V15N,-0.213 ± 0.049
10,V15R,-0.206 ± 0.024
11,V15Q,-0.08 ± 0.035
12,I19A,-0.034 ± 0.027
13,I19H,-0.06 ± 0.038
14,I19S,-0.046 ± 0.027
15,K36I,-0.078 ± 0.056
16,K36H,-0.046 ± 0.051
17,K36C,-0.031 ± 0.04
18,K36N,-0.059 ± 0.043
19,K36Y,-0.149 ± 0.052
20,K36V,-0.022 ± 0.027
21,C51T,-0.093 ± 0.033
22,C51S,-0.284 ± 0.029
23,C51E,-1 ± 0.059
24,C51Y,-0.116 ± 0.046

row,Variant,abundance fitness
1,D68H,-0.045 ± 0.043
2,L53Q,-1.1 ± 0.091
3,L53A,-0.719 ± 0.039
4,L53G,-1.1 ± 0.041
5,L53T,-0.923 ± 0.063
6,L53Y,-1.67 ± 0.26
7,L53P,-1.03 ± 0.093
8,L53V,-0.132 ± 0.028
9,S50R,-0.011 ± 0.023
10,S50G,-0.054 ± 0.025
11,S50W,-0.174 ± 0.03
12,S50H,-0.105 ± 0.044
13,V71K,-0.031 ± 0.036
14,V71A,-0.036 ± 0.029
15,V71T,-0.083 ± 0.029
16,P11M,-0.136 ± 0.032
17,P11E,-0.067 ± 0.031
18,P11C,-0.133 ± 0.033
19,L67E,-0.54 ± 0.03
20,L67M,-0.107 ± 0.035
21,L67N,-0.501 ± 0.064
22,L67Y,-0.815 ± 0.072
23,L67I,0.008 ± 0.04
